Experimental data: patent US20200405832A1 (MINERVA BIOTECHNOLOGIES, published 2020)
Each block holds one binder with its values, some of them ahead of it.

Tests used:
[1] = molecular target: T1, PSMGFR peptide (Primary Sequence of the MUC1 Growth Factor Receptor); assay: binding assay on peptide
T1 construct: 45-residue peptide from the extracellular domain of cleaved MUC1 (MUC1*); also called MUC1* peptide; MUC1* extra cellular domain peptide
T1 peptide: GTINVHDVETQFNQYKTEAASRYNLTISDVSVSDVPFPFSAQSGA

[2] = molecular target: T2, NME7-AB (UniProt Q9Y5B8 92-376); assay: binding assay on peptide
T2 sequence (looked up): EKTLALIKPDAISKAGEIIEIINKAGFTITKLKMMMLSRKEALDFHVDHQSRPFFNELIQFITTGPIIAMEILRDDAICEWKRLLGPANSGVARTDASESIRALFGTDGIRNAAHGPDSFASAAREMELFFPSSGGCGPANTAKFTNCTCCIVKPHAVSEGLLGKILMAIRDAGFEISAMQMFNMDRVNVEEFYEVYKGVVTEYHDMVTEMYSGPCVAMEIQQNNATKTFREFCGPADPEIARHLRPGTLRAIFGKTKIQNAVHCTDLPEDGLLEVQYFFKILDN

[3] = molecular target: T3, dimeric NME1 (human, UniProt P15531 1-152, limits assumed); assay: binding assay on peptide
T3 construct: The construct used is not described; also called NM23-H1 dimers; dimeric NM23-H1

[4] = molecular target: T1, PSMGFR peptide (Primary Sequence of the …); assay: binding to peptide; assay not described

T3 sequence (P15531 whole entry): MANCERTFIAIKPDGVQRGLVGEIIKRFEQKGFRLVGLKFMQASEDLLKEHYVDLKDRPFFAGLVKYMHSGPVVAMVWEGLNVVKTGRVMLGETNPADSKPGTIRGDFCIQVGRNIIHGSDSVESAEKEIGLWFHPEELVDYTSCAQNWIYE

binding result [1]: binds
B1: mouse monoclonal antibody MN-C2 (antibody, V domains shown)
VH: EVQLEESGGGLVKPGGSLKLSCAASGFTFSGYAMSWVRQTPEKRLEWVATISSGGTYIYYPDSVKGRFTISRDNAKNTLYLQMSSLRSEDTAMYYCARLGGDNYYEYFDVWGAGTTVTVSS
VL: DIVITQSTASLGVSLGQRATISCRASKSVSTSGYSYMHWYQQRPGQPPKLLIYLASNLESGVPARFSGSGSGTDFTLNIHPVEEEDAATYYCQHSRELPFTFGGGTKLEIKR
notes: The printed entries run a few residues into the constant region; also called Min-C2

binding result [2]: no binding
binding result [3]: no binding
B2: PSMGFR peptide lacking the 10 C-terminal amino acids (peptide)
peptide: GTINVHDVETQFNQYKTEAASRYNLTISDVSVSDV
notes: also called C-10 PSMGFR

binding result [1]: binds
B3: mouse monoclonal antibody MN-E6 (antibody, V domains shown)
VH: EVKVVESGGDLVKPGGSLKLSCVVSGFTFSRYGMSWVRQTPGKRLEWVATISGGGTYIYYPDSVKGRFTISRDNAKNTLYLQMSSLKSEDTAMYHCTRDNYGRNYDYGMDYWGQGTSVTVSS
VL: QIVLTQSPAIMSASPGEEVTLTCSATSSVSYIHWFQQRPGTSPKLWIYSTSNLASGVPVRFSGSGYGTSYSLTISRMEAEDAATYYCQQRSSSPFTFGSGTKLEIK
notes: also called Min-E6

binding result [4]: binds
B4: mouse monoclonal antibody MN-C3 (antibody, V domains shown)
VH: QVQLQQSGPELVRPGVSVKISCKGSGYRFTDYAMNWVKQSHAKSLEWIGVISTFSGNTNFNQKFKGKATMTVDKSSSTAYMELARLTSEDSAMYYCARSDYYGPYFDYWGQGTTLTVSS
VL: DVLMTQTPLSLPVSLGDQASISCRSSQTIVHSNGNTYLEWYLQKPGQSPKLLIYKVSNRFSGVPDRFSGSGSGTDFTLKINRVEAEDLGVYYCFQGSHVPFTFGSGTKLEIK
notes: also called Min-C3
